Assays:
[1] = target: human CD3 on human T cells (human) (UniProt P07766); assay: saturation binding on human pan T cells, flow cytometry (KdT)
[2] = target: human CD3 on human T cells (human) (UniProt P07766); assay: flow cytometry competition on purified human T cells; competitor 2 ug/mL AF488-labelled SP34-2
[3] = target: Human CD33 ECD-HSA (human); assay: SPRi off-rate screen (IBIS MX96)
Human CD33-V-HSA (human) = assay: SPRi off-rate screen (IBIS MX96)

human CD3 on human T cells (human), sequence (P07766 23-207 limits assumed): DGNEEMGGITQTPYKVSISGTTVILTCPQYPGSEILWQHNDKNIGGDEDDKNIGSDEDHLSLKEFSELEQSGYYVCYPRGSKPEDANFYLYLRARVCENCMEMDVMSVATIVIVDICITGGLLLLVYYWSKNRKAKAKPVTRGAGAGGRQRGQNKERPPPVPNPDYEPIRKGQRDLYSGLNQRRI

Substance	Kd [1] [nM]	IC50 (read off the curve) [2] [µg/mL]	koff [3] [s⁻¹]	koff (Human CD33-V-HSA (human)) [s⁻¹]
SP34-2, commercial mouse anti-human CD3 antibody	5.6	1	–	–
WM53 (antibody)	–	–	0.00237	0.0378
